Measurements reported in the DeepSol protein solubility set.

assay: soluble on expression in E. coli; label from the status in PepcDB or PDB records

Sequence | soluble on expression in E. coli
MPLPPHLSDRVVALQPSLTLAISARAKALQQEGRDICSLSAGEPDFNTPEFIIDATVKALRDGITRYGPAAGDPELREAIATKLSKENTVPTNAEQVLVTNGGKQAIFNLFQVILNPGDEVLIPAPYWLSYPEMARLAGAKVTTLPSTPENGFCLDLNNLEASIGPKTRLLLLNSPGNPTGRVMARKELETLADLLRDHPQILVMSDEIYEFILEEGQQHYSFSAIAPDLSNRTFIVNGFAKGWAMTGWRLGYLAGPADAVKAATALQSQSTSNVCSFAQRGALAALQGSRECVKKMVKSYNTRRELLTSGLLSLEGMSLVPPKGAFYAFPKLPPESLDSVSFCEQALENHGLAMVPGAAFGDDSCVRLTCAVSPETICDGLERLRKALKQS | not soluble
LPTGIIIAATPLGNIGDASPRLVHALANATVVAAEDTRRTASLAAALGVEIKGQLVSNFDHNEQARVGKLIEAARTGTVLVVSDAGMPVVSDPGFALIDAAHDANIPVTCFPGPS | not soluble
MGSDKIHHHHHHMQITLNIEHIRADTPLPPLFRVRQRWQTSPIADVAAVVYAELDKIGLAGHIQPGMRIAVTAGSRGISNIVTITAAAVAWLRAHGAEPFIVPAMGSHGGATAEGQVALLASLGITEQSVGCPIRATMDVVELGRIADGTPVYMDRFAAEADGVLVINRIKTHTSFKAPIESGLAKMCAVGLGKRQGAEIVHRTAVYGLKEQLVPMARMVVERGRVLAGLAILEDARDQTAAIVALPPAEIGGAGEAELLLRSKEMMARLPFDRLDVLVVDRIGKNISGTGMDTNVIGRLPIPGEPPPDRPVINVIVVLDLTPETHGNANGIGLADITTARLAAKIDFHATYVNVLTAGLVGLCKGGLPITLPTERDAVAMAIKTCGQPDLAAVRLVRIPDTLHLEELLVSEALLPEVTAHPNLELLGPAEWVLDCVEG | not soluble
MSLVPRVMSTQHPDNARIPFFAASEVLNGEDEVREAYYVFSHFKCDEQMWDFEGKEADAHIVRKLLSSYYDFFSSRPLGKDFRLTMRVPNPEIEKGEAKLLAETLEMIPRSYDYVRSLGIEHPPIFEVILPMTRSAEEVMKVHAFYRDFVAGKGRFELLGEKVSDWLGDFLPEEIKVIPLFEDRDSLMRAAEISERYAEWAELDELRVFLARSDPAMNYGFVAATIYVKKALYDLSQLGISTYPILGVGSCPFRGGFSPKNLSVLDEFPSVYTFTVQSAFKYDYEFGDVRRAIKRAKEAARRKSDYVDEEHLQVAEKLKDGYRRRIAKIAEIVNRISSRIPRRRMRKLHVGLFGYSRGEEIKLPRAITFCASLYSIGLPSEIIGIAEMSDKDYEAVCEVFKNFDGMMESAMSLFNPESLKIVDLSMDFERAKELFGYEPDERHLEKTNEIIKQIDGDIKNLVVEAGILRGFLGEGHHHHHH | not soluble
MGSDKIHHHHHHMKIPKRLQPLVDDGLIDDVLQRLKSGKEADVYTVLCGDKIQCAKVYKEAMQRSFKQAVQYQEGRKVRNTRNARAMQKSSKFGRKQQEESWQTAEVEALFRLANAGVRVPQPYICIDGVLLMELVTDVDGAVAPRLSDVILTEESAIADFDTMIRNIVRMLCVGIVHGDLSEFNVLIDAQGPVIIDLPQAVDAAANNHAESMFARDVNNITAYYGQFAPQLLQTRYAQEIWMLYEDGKLTPETALTGLFVEAVHEVDMGSLIDEIIAAEDEFYERQRAKKERDDE | not soluble
MGSDKIHHHHHHAQTYQQLSEKAIEYIEMDSLSKAEELLLQALKLEPKNAKNAMLFSNLGLVQRRLGEYDKALESYSFALNFAPLAVPILLDRAAINLEMGNTDRAYTDYCQVLDEDKQNKEALLMRAYIYVLRRDYPAARIDYNRLLEIDPQSYSGRLGLATLEQKEGKFKEALEILNKMITATPEDATLYIARADVEREMKHEDLALVDLEEAIRLNPSSADAYLLRGNIYLTQKKKALAKMDFEKAISLGIPPADLHEQLKQCK | not soluble
MGSDKIHHHHHHMEIHSSAAAEVFPVCRSLLGKLPAHSHNRSVAPTVCDYYPQIMKTYNSKMTTQHSSDIRNSQNISASFVTPHDAPVTSRKYVPKFNSNNHRIKTAAAFEKGSDIYHAVRPNYPNSVIELLNLSPNSRVLDIGCGTGKLTEQIAQQTSSVYALDPSKDMLDSFRSTLDIPSWQATAEQTAVSDSRFSTLTCAQTWHWVEPLAASAELDRISTDDAQLLLVWNTLDVSVPWVHRLSRIMHSGDTLAEGFIPHVAQPWELVSVLRGKHAQELYPDQIHTLAHTRSYWLRASEKTREKLTHNLSWYLTDHLELPSTSLVEIPYRFDAFLYKKALVKTQ | not soluble
MPCFFFILDTSGSMSTRAHPQFSFFDLAKNFIENFIKQRTKGDNRMMVGRETDKYFLMTTQARYPKNVKVACEKLGAVVIEEIKKLHLPYGSCQLHHAILEAFKVLHVSRVQTGIDGVGIGRLISNTEPVTMILLTDGSGVAGIPIDFRLFFDPPFLGSEMTRDAFRWDQKFYTVVFRIPSTPYRPTISQLTAIDIDMPVIERLCARTGGRSFSIVSPRQIQTTIDYLLAMGNQYKIGVRFECLPAIPAPITSDEVNLVKMKFKKVIDKRPVTNIISRLNPQARPVTCHWPIPESFFPMRTMDQLPQRTSHPVILCAPIALPLHIRPELPVDKLELEPGGISDIIMEILQGRKDMTVWTYMEGSSNGPTAPFGCLRMNTLGTGITLILMPFNFPMLYSLVEEIVKEPFLNKSQVWRSKLESYFHTVPFYYNTQIRVCLDKFDVKVDYSSSMSMFYPGQLLSNLNRFKAKAREELDQMAIASKLNDSKTLKIVNPSIRIERITSRSTIIGLGNSEVDIEDDSLEGYESTPIYAGDFKIPLYPPSITDAQLDSAYRTPYSSPIEDLTSKLNRIQANIELMFDPNKITLLDMAKLGTKARFNTLGLCFFHPIFLANSTSRKFYIQKFETLQVMDSAVVDNNSPSTSGQPKRFGGEGRQGGGPPKRRRGPLGIDAYDQYRIRRSMRGSSAGSDISDISSSLGTFDQDSDMTTPGTSGMNTPISEFDDLQLQEMDSDDQLMKNLDEVQALRKKEEAQVQPKIKKPPPVPPASILSSQEILTRKIRIGSIIRKPANHCAFEEIMTLVAGITQEACSQLIKYALRESQRFKLKQLTERLENRLKTV | not soluble
MAHHHHHHMANYQQQYTNAEYTLPNFFETASTVAKVLTPGGRTPTVLAVDVSGQPLLPPPPPESDFAVPEPGQLEKLLCAYVGPSHTLGLSPKQLFDEEIRARNLEMEERKKEMRAITEQYERELRECMMESEQRSVVEDARRAIDLADREALEERKRPLRMYLNHNIIPLLSKGLVEVCKRRPVDPVDFLAEWLMLHNPHDDSCFEL | not soluble
MLVPRGSMAPIGSVVIVGRIILSGRGGPITAYSQQTRGLLGCIITSLTGRDKNQVEGEVQVVSTATQSFLATCVNGACWTVFHGAGSKTLAGPKGPITQMYTNVDQDLVGWPAPPGARSLTPCTCGSSDLYLVTRHADVIPVRRRGDTRGSLLSPRPISYLKGSSGGPLLCPSGHVVGIFRAAVCTRGVAKAVDFIPVESMETTMR | soluble
MAKRIVAMSSTHIAMLDAIGEVRCITGVSGIDYISNPDIQARRDSIGDVGYEGNINYELLLSLDPDLVLLYGVNGASAMESKLEELDIPFMYVGDYLEESPLGKAEWMVVLSEVTGKREKGEKAFAAIPVRYNALKKKVADSTLEHHHHHH | soluble
TMNPLYSLKRSEERRNVVLSRMLDEKYISKEEYDAALKEPIVASYHGAKFEFRADYVTEMVRQEMVRRFGEENAYTSGY | not soluble
MISAKEQAKKGQIIYRYILLKIQSFKWPAGTRIFSERQLEIRFASSRSLIRTILNTLLGKDLIRHTKGNAGYFVAKNAGFSFFHKTQDNKLPKWAKLSTLMKNHLREVDRDVFSSIDSGVDFGNFKGLEAKLFDENKKNFLNLSFFGKDDVLQIFSEQNLQEQFFKDFAYNGIVVERKSSLICVDDETKNLLIYDLFYDDNNKFIVAMRSEYLNPRIKIINA | soluble
MGHHHHHHSHMIFLSTLFWYNKLMNKSTFSLNDTAWVDFYQLQNPRQNENYTFPAIIICPGGGYQHISQRESDPLALAFLAQGYQVLLLNYTVMNKGTNYNFLSQNLEEVQAVFSLIHQNHKEWQINPEQVFLLGCSAGGHLAAWYGNSEQIHRPKGVILCYPVTSFTFGWPSDLSHFNFEIENISEYNISEKVTSSTPPTFIWHTADDEGVPIYNSLKYCDRLSKHQVPFEAHFFESGPHGVSLANRTTAPSDAYCLPSVHRWVSWASDWLERQIKN | soluble
MEPGVDGARKQIAEVVAERIERLILDGVLKAGQALPSERRLTEKLGVSRTALREGLRVLWARQIIHTAQGKGSYVAQISQVDAGPLVHLFNSQPRTLYDLLEVRALLESESARLAAIRGTDADFIMIRRRYDEMLAAHGRETDSATHAHLDHAFHLAICQASHNAVLVHTLQSLTDLLLGSVFACVNNLYHREPHKRHIDQQHERLFLAVLAREPEQAHQAARAHVDSVRQSLAEIEQEEQRLVRATLRLEGWV | not soluble
MGFMIEHWDFSTPMATQETTTAEHIQPNHWYHCERLHPDIRSWLEDNHVPRATVDHLLADESRPSFHPLDDDNFMLILRGINMNENASPEDMLSIRILYFQGALISTRKIPSRAIMEIRQALAEHKGPKSLASLLNQIIEGLNGKIDLYLDTIEETLNEFDVNDESTYNHIAAQKALISIKRFIRPQQYAIRDLIESESELVTSRPHQYRFAHNNITRINETIEFYLGEVALFQDEIKHNRDEKTNKNSYLFTLVATIFLPTSFLTGLL | not soluble
EDAWEANDPLGSLSIRYLEAAQDSQWHRELLLAGTDINHHVFRDLVTPRNPRSRFSFAMYLKEQGRMFDFGLLGRPASRHEWSDYLAWVSRQVDSQTCFNTPVTGIDPVLRNGRLHEVRVCTPQTCFTTRNVVLSSGSAPRIPHAFEALLGPTLFHTSQFLTRLQAFGEYLPKRWLVLGSGQSASESVLELVSRDHAIEV | not soluble
MAGQISPTRSALLASKASLKTANGGADLLKRKRDALIGEFFALVKDALAAREQLSSVSKGAYTSLFGAKAWDSPEAVESLSLAGTGDYAVDMQIESIYGVKVPKINIPERAAQADFSPINVGARTIQASNDFGGVLEAIVKVAATETKLRRIGEEIKKTSRRVNALEQVVIPGIHDDIRFIRSVLDQREREAGYTQKKIKAKIEGKNKEAREAAAATSHGSAADAAALEHHHHHH | not soluble
MLRFYAMKQITEPGTYEIRGEVAEGDFSWDATNFAGFFYDVNDDVSTESLTVTGLNGGNVIPEGGLVYETTIQMVDYEYSKPSVGWDQFPVLGFFAEEYIPINADKADKLAKLVLDSDDKYTIRTGEQLDLGEGYAIEAKQVDVDGEKVWLEFTKDGEFVDDEIISVVSGSDNTWEVELDDIQDEDDVVVLRVHVNQVFQGAVDSIAQIEGIWLIDYANAMKIESDDEFGDLDNVKINGATLTITNEDTFTLTRDDEVEIGQGMFFKVADTAASDLRYYPFVEKTIDGEVVDDDEDDDNVTEPVDNDTEVEEPTEEPTEGPTEELEHHHHHH | not soluble
MKEIWLLAESESWDEAKEMLKDAIEIGFDGALVRRDFLERAEKLGRMKIVPIEDAVVKISSAEDQERALQREVVVLKFEDWKVIPLENIVAMKKSGKVIAAVDTIEDAKLALTTLERGADGIAVSGDRETLRKFYEVVKEEGERVELVRARVKEIRPLGVGERVCIDTVTLMTPGEGMLVGNQASFMFLVASESEESEYVASRPFRVNAGSVNAYLKVGDKTRYLAELKAGDEVEVVKFDGAVRKSYVGRVKIERRPLILIRAEVDGVEGSVILQNAETIKLVAPDGKHVSVAELKPGDEILVWLGKKARHFGVEVDEFIVERLEHHHHHH | soluble
MSLSTPSKAMAAMEFNTTSVNKSSAIDSNNTKKEQLSDVNDISFTDHGYYIIPSLDTLNGMPLVELRSVNGLVVGHKDYGKVEFLEPVDLVNVPLNSICDKLIHFEPKTCILYPNSPIKPKKGEGMNVPAKITCFDCFPINKSTREPILDANSTLLKKHIDKLKKVPGTKFVSYEEKTGKYVFTVDEPILEGHHHHHH | soluble
